From paper PMC5670239, “Structural basis for mutually exclusive co-transcriptional nuclear cap-binding complexes with either NELF-E or ARS2” (Nature Communications, 2017)

Columns and labels:
CBC [1] = biological target: T1, CBC (Homo sapiens, UniProt P52298); assay: Size exclusion chromatography (gel filtration) co-elution with CBC, without m^7GTP; format: binding; details: fractions analysed by SDS-PAGE, absence of m^7GTP
T1 sequence (P52298 1-156): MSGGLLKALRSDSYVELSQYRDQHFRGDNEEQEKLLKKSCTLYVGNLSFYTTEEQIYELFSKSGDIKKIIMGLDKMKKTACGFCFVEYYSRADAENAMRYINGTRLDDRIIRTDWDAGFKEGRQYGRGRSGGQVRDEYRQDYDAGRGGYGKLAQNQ
T1 sequence (Q09161 20-790 partner): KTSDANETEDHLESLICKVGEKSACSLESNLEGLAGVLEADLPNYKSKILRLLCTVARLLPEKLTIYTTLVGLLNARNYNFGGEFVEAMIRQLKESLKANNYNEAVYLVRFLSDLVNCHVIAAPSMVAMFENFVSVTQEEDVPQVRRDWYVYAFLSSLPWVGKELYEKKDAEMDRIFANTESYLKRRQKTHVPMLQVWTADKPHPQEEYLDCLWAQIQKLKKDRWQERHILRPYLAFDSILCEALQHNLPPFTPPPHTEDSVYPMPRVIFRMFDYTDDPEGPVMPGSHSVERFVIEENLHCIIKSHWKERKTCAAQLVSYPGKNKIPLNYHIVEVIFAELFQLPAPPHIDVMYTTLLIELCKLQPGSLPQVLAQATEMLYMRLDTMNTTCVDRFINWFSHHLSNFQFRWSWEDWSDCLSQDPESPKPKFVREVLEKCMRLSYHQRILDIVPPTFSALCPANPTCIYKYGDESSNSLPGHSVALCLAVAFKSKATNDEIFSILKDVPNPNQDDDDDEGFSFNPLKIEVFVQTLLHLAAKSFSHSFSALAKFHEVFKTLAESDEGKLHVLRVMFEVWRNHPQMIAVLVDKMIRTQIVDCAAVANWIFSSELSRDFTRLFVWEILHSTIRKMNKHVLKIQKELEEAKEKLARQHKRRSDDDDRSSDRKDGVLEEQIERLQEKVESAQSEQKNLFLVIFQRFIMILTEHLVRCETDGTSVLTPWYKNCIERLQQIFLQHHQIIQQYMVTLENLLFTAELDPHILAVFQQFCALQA
Procedure: (§1) Fig. 1 The interaction of CBC with ARS2 is enhanced in the presence of m^7GTP. a Schematic diagram of the domain structure of ARS2 based on ref. [26]. b Gel filtration chromatogram and Coomassie-stained SDS-PAGE of CBC-ARS2 in the presence and absence of m^7GTP. Purified recombinant CBC and ARS2^147–871 were mixed with (orange) or without (blue) 500 µM m^7GTP and subjected to gel filtration. Their elution profiles were overlaid (left) and single fractions analysed by SDS-PAGE (middle and right). Purified recombinant CBC and C-terminally truncated ARS2^147–845 were mixed with 500 µM m^7GTP and analysed in a similar way (bottom left). c ITC data and curve fit to derive the affinity of different ARS2 constructs for CBC. CBC or m^7GTP-CBC in the sample cell was titrated by ARS2. […] K D values and standard deviation represent the average from at least two independent experiments. d Sequence alignment of the C-terminus of ARS2. Conserved residues are highlighted in red. Figure made with ESPript[54]
Fig. 2 The interaction of CBC with NELF-E is enhanced in the presence of m^7GTP. a Schematic diagram of the domain structure of NELF-E. b Gel filtration chromatogram and Coomassie-stained SDS-PAGE of CBC-NELF-E in the presence and absence of m^7GTP. […] Their elution profiles were overlaid (left) and single fractions analysed by SDS-PAGE (middle and right). […]

[2] = test system: CBC–NELF–E complex immobilised on m^7GTP-sepharose; assay: Displacement pull down on m^7GTP-sepharose, CBC–NELF–E; format: binding, human; details: increasing amounts added, 1 h at 4 °C, flow through and elution by SDS-PAGE
Procedure: (§2) Fig. 4 Incompatibility of ARS2-PHAX and NELF-E binding to CBC. a, b Competition on m^7GTP-sepharose. a In separate experiments, different amounts of ARS2^147–871 were added to preformed CBC–NELF–E complex immobilised on m^7GTP-sepharose. […] The fluorophore FAM is represented with a star. Note that different constructs of NELF-E and ARS2 were used in c, d, and e compared to f, g, and h and are therefore represented by slightly different shapes. Error bars show the SD of three experiments
CBC-NELF-E^1–380 or CBC-PHAX^1–394 were immobilised on m^7GTP-sepharose and incubated for 1 h at 4 °C with different amounts of ARS2^147–871 or NELF-E^1–380 in 20 mM HEPES, pH 7.8, 120 mM NaCl, 2 mM tris(2-carboxyethyl)phosphine, respectively. The flow through, as well as the elution from the beads after extensive washing, was analysed by SDS-PAGE followed by Coomassie staining.

CBC [3] = biological target: T1, CBC; assay: Size exclusion chromatography (gel filtration) co-elution with CBC, with m^7GTP; format: binding; details: gel filtration with 500 µM m^7GTP, fractions analysed by SDS-PAGE
Procedure: as §1
Fig. 2 The interaction of CBC with NELF-E is enhanced in the presence of m^7GTP. a Schematic diagram of the domain structure of NELF-E. b Gel filtration chromatogram and Coomassie-stained SDS-PAGE of CBC-NELF-E in the presence and absence of m^7GTP. Purified recombinant CBC and NELF-E were mixed with (orange) or without (green) 500 µM m^7GTP and subjected to gel filtration. Their elution profiles were overlaid (left) and single fractions analysed by SDS-PAGE (middle and right). Purified recombinant CBC and NELF-E^244–360 were mixed together with 500 µM m^7GTP and similarly analysed (bottom left). c ITC data and curve fit to derive the affinity of different NELF-E constructs for CBC. CBC or m^7GTP-CBC in the sample cell was titrated by NELF-E^244–380 or NELF-E^360–380. The data were presented as described in the caption to Fig. 1c. d Sequence alignment of the C-terminus of NELF-E. Conserved residues are highlighted in red. Figure made with ESPript[54]

CBC [4] = biological target: T1, CBC; assay: ITC, binding to CBC without cap analogue; details: ITC (MicroCal ITC200), 25 °C, 20 mM HEPES, 120 mM NaCl, 2 mM TCEP, pH 7.8, single-site fit; no cap analogue pre-bound; mean ± SD of at least two independent experiments; SD
Excerpt: hARS2 isoform-4 (871 residues, UniProt:Q9BXP5-4, also known as isoform-e, NP_001122326) constructs (residues 147–871, 147–845, 763–871, 763–845, 827–871) hNELF-E (NM_002904.5) (244–380, 244–360) and hPHAX (NM_032177.3) (1–394, 103–294, 103–308, 103–327) were cloned into pETM11 (EMBL). Full-length hNELF-E (1–380) was cloned into pFASTBac and CBP20 into pETM30. Primers used are given in Supplementary Table 2. All constructs were expressed in E. coli Rosetta 2 (Novagen), except full-length NELF-E and CBP80ΔNLS (CBP80 with residues 1–19 deleted[2]), which were expressed in High Five insect cells (Life Technology). Cells were harvested and lysed by sonication in lysis buffer containing 50 mM HEPES, pH 7.8, 300 mM NaCl, 10% (v/v) glycerol, 5 mM β-mercaptoethanol. Lysates were clarified by centrifugation and applied on an equilibrated Ni-sepharose column (GE Healthcare), washed with 20 mM imidazole in lysis buffer, and eluted with 300 mM imidazole in lysis buffer. While dialysing into 20 mM HEPES, pH 7.8, 120 mM NaCl, 10% (v/v) glycerol, 5 mM β-mercaptoethanol, the N-terminal 6-histidine-tag was cleaved with His-tagged Tobacco Etch Virus (TEV) protease overnight in a ratio 1:100 mg TEV per mg protein. The cleaved protein was further purified first on Ni-sepharose to remove TEV and then using an anion exchange column (HiTrap Q, GE Healthcare) followed if necessary by a Heparin column (GE Healthcare). In both cases a NaCl gradient from 50 to 800 mM in 20 mM HEPES 7.8, 0.5 mM tris(2-carboxyethyl)phosphine was used. To reconstitute the CBC heterodimer, cleared His-tagged CBP20 lysate was first immobilised on a Ni-sepharose column. After washing the column with lysis buffer, the cleared CBP80 lysate was applied to the column and further purification steps performed as described above. To remove the access of CBP20 the flow through of the Ni-column after TEV cleavage was loaded on an anion exchange column (HiTrap Q, GE Healthcare) and CBC eluted by a NaCl gradient as described above. In the text we refer to CBP80ΔNLS and CBP80ΔNLS-CBP20 as CBP80 and CBC, respectively. ARS2^845–871, NELF-E^354–380, and NELF-E^360–380 peptides, with or without FAM label at the N-terminus, were purchased from GenScript.

m^7GTP-CBC = biological target: T2, m^7GTP-CBC (Homo sapiens, UniProt P52298+Q09161); assay: Fluorescence polarisation with FAM-labelled C-terminal peptides; format: binding; details: competition, 40 nM FAM peptide, 25 µM m^7GTP, 25 °C, n = 3
T2 construct: 6-histidine tag (pETM30 vector) (N, cleaved yes); made in house; host or cells: CBP20 in E. coli Rosetta 2; CBP80ΔNLS in High Five insect cells; heterodimer reconstituted on Ni-sepharose
T2 sequence (Q09161 20-790): T1 sequence (Q09161 20-790 partner)
T2 sequence (P52298 1-156): T1 sequence (P52298 1-156)
Procedure: as §2
Fluorescence anisotropy binding assays were performed with N-terminal FAM-labelled ARS2^845–871 and […] peptides. 40 nM peptides were titrated with increasing concentrations of proteins in 20 mM HEPES, pH 7.8, 120 mM NaCl, 2 mM tris(2-carboxyethyl)phosphine. For the competition assay CBC–ARS2 and CBC–NELF–E complexes were preformed in the presence of 25 µM m^7GTP using 40 nM ARS2^827–871(FAM) peptide together with 60 nM CBC and 40 nM NELF-E^354–380(FAM) peptide with 1 µM CBC. […] To observe a change in polarisation at reasonable protein concentrations, CBC and NELF-E^244–380 concentrations that saturate half of the FAM-labelled peptides were used to preform the individual complexes. Fluorescence polarisation was measured at 25 °C with a microplate reader (CLARIOstar BMG LABTECH) using an excitation wavelength of 495 nm and emission wavelength of 515 nm. For analysis the polarisation value for the peptide alone was subtracted from the measurements.

B1: PHAX 103–264: human PHAX residues 103–264 (protein, UniProt Q9H814 103-264, looked up, fragment)
chain: SQKPPVAGGKKINNIWGAVLQEQNQDAVATELGILGMEGTIDRSRQSETYNYLLAKKLRKESQEHTKDLDKELDEYMHGGKKMGSKEEENGQGHLKRKRPVKDRLGNRPEMNYKGRYEITAEDSQEKVADEISFRLQEPKKDLIARVVRIIGNKKAIELLME
B1 was tested, and the “Interaction with CBC by SEC” value (CBC [1]) was “No interaction via SEC”.

B2: ARS2^147–871: human ARS2 lacking the putatively unstructured N-terminal region (protein, UniProt Q9BXP5 147-871, looked up, fragment)
chain: PVMKTFKEFLLSLDDSVDETEAVKRYNDYKLDFRRQQMQDFFLAHKDEEWFRSKYHPDEVGKRRQEARGALQNRLRVFLSLMETGWFDNLLLDIDKADAIVKMLDAAVIKMEGGTENDLRILEQEEEEEQAGKPGEPSKKEEGRAGAGLGDGERKTNDKDEKKEDGKQAENDSSNDDKTKKSEGDGDKEEKKEDSEKEAKKSSKKRNRKHSGDDSFDEGSVSESESESESGQAEEEKEEAEEALKEKEKPKEEEWEKPKDAAGLECKPRPLHKTCSLFMRNIAPNISRAEIISLCKRYPGFMRVALSEPQPERRFFRRGWVTFDRSVNIKEICWNLQNIRLRECELSPGVNRDLTRRVRNINGITQHKQIVRNDIKLAAKLIHTLDDRTQLWASEPGTPPLPTSLPSQNPILKNITDYLIEEVSAEEEELLGSSGGAPPEEPPKEGNPAEINVERDEKLIKVLDKLLLYLRIVHSLDYYNTCEYPNEDEMPNRCGIIHVRGPMPPNRISHGEVLEWQKTFEEKLTPLLSVRESLSEEEAQKMGRKDPEQEVEKFVTSNTQELGKDKWLCPLSGKKFKGPEFVRKHIFNKHAEKIEEVKKEVAFFNNFLTDAKRPALPEIKPAQPPGPAQILPPGLTPGLPYPHQTPQGLMPYGQPRPPILGYGAGAVRPAVPTGGPPYPHAPYGAGRGNYDAFRGQGGYPGKPRNRMVRGDPRAIVEYRDLDAPD
With B2 the “Displacement of NELF-E from immobilised m^7GTP–CBC–NELF–E complex” value [2] was “could displace NELF-E” and the “Interaction with CBC by SEC in the presence of m^7GTP” value (CBC [3]) was “only co-eluted in the presence of the cap analogue m^7GTP”.

B3: PHAX 120–308: human PHAX residues 120–308 (protein, UniProt Q9H814 120-308, looked up, fragment)
chain: AVLQEQNQDAVATELGILGMEGTIDRSRQSETYNYLLAKKLRKESQEHTKDLDKELDEYMHGGKKMGSKEEENGQGHLKRKRPVKDRLGNRPEMNYKGRYEITAEDSQEKVADEISFRLQEPKKDLIARVVRIIGNKKAIELLMETAEVEQNGGLFIMNGSRRRTPGGVFLNLLKNTPSISEEQIKDIF
In the case of B3, the “Interaction with CBC by SEC” value (CBC [1]) is reported as “No interaction via SEC”.

B4: PHAX 103–327: human PHAX residues 103–327, includes the full PHAX RBD (protein, UniProt Q9H814 103-327, looked up, fragment)
chain: SQKPPVAGGKKINNIWGAVLQEQNQDAVATELGILGMEGTIDRSRQSETYNYLLAKKLRKESQEHTKDLDKELDEYMHGGKKMGSKEEENGQGHLKRKRPVKDRLGNRPEMNYKGRYEITAEDSQEKVADEISFRLQEPKKDLIARVVRIIGNKKAIELLMETAEVEQNGGLFIMNGSRRRTPGGVFLNLLKNTPSISEEQIKDIFYIENQKEYENKKAARKRRT
In the case of B4, the Kd (CBC [4]) is reported as 350 ± 71 nM, the “Change of polarisation on titration to m^7GTP-CBC-ARS2^845–871(FAM)” value (m^7GTP-CBC; 60 nM CBC) is reported as “did not affect the polarisation” and the “Change of polarisation on titration to m^7GTP-CBC-NELF-E^354–380(FAM)” value (m^7GTP-CBC; 1 µM CBC) is reported as “did not change the polarisation”.
